The text below walks through data of patent US20180339041A1 (Kyowa Kirin, published 2018).

The target in assay [1] is T1, C-terminally FLAG-tagged rat Gas6 recombinant protein (rGas6-F) (rat, UniProt Q63772 28-674, limits assumed, gamma-carboxylated glutamic acid residues in the Gla domain (producer cells co-express rat VKOR and human GGCX); positions not given).
T1 construct: also called rat Gas6-F
T1 sequence (looked up): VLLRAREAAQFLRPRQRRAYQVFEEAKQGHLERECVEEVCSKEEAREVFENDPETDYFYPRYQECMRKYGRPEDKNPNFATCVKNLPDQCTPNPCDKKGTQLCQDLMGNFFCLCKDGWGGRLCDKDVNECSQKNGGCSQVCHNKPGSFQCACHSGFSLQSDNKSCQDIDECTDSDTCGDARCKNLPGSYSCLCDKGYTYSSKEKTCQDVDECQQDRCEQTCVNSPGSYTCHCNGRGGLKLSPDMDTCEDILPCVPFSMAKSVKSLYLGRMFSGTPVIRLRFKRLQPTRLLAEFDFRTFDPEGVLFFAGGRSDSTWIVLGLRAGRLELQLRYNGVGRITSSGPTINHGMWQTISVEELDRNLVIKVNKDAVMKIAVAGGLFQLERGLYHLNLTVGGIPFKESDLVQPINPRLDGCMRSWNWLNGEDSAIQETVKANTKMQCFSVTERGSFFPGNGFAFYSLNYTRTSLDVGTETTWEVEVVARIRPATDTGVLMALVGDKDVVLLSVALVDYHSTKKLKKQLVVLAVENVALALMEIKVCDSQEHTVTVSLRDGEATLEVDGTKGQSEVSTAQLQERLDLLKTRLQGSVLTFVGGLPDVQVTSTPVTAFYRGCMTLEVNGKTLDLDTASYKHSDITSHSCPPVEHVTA
As to the kind of experiment: competition ELISA: rAxl-hFc coated; rGas6-F at 50 ng/mL final premixed with the antibody; bound Gas6-F detected with anti-FLAG M2-HRP; blocked partner rAxl-hFc (Examples 5(4) and 7) [B]. A general note: An ELISA detects its analyte on a solid surface through an enzyme-linked reagent.

Assay [2] concerns the target T2, C-terminally FLAG-tagged human Gas6 recombinant protein (hGas6-F) (human, UniProt Q14393 31-678, gamma-carboxylated glutamic acid residues in the Gla domain (producer cells co-express rat VKOR and human GGCX); positions not given).
T2 construct: also called human Gas6-F; human Gas6 protein
T2 sequence: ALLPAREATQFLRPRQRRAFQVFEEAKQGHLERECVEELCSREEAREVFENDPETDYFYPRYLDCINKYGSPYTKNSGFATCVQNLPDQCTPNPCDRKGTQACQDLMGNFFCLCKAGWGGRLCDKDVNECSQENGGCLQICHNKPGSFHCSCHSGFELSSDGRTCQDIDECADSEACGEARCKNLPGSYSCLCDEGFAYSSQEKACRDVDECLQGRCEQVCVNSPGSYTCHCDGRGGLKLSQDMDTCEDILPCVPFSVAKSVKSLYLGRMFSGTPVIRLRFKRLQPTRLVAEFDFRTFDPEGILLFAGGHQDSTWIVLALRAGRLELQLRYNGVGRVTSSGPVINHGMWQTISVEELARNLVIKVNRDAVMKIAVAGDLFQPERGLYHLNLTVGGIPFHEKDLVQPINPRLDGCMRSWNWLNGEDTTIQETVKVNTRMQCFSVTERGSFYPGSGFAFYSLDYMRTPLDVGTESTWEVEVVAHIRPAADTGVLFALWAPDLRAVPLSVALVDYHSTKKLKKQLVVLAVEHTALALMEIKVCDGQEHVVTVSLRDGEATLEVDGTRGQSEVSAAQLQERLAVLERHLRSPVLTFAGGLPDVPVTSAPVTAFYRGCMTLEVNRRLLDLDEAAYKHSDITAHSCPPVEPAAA
In words: competitive ELISA, hAxl-hFc immobilised, 50 ng/mL hGas6-F.

Assay [3] has as its target T2, C-terminally FLAG-tagged human Gas6 …. In words: ELISA, Gas6-F captured by anti-FLAG, biotinylated antibody. As to the method: After removal of the immobilization solution, 1% BSA-PBS (manufactured by Nacalai Tesque, Inc.) was added thereto at 300 μL/well, and the plate was left standing at room temperature for 1 hour for blocking and washed five times with Tween 20-PBS (manufactured by Wako Pure Chemical Industries Ltd.).
Each antibody solution was dispensed thereto at 50 μL/well, and the plate was left standing at room temperature for 1 hour. This plate was washed five times with Tween 20-PBS. Then, Streptavidin HRP Conjugate (manufactured by R&D Systems, Inc.) diluted 200-fold with 1% BSA-PBS was dispensed thereto at 50 μL/well, and the plate was left standing at room temperature for 1 hour. This plate was washed five times with Tween 20-PBS, and TMB (manufactured by Sigma-Aldrich Co. LLC) was added thereto at 50 μL/well and reacted. At an appropriate point in time, the reaction was terminated by the addition of 1 N hydrochloric acid (manufactured by Wako Pure Chemical Industries Ltd.) at 50 μL/well. The absorbance at a sample wavelength of 450 nm and a reference wavelength of 570 nm (450 nm-570 nm) was measured using a plate reader.

B1: anti-human Gas6 mouse monoclonal antibody KM5321 (KM5321-mKG1 antibody) (antibody, V domains shown)
VH: QIQLVQSGPELKKPGETVKISCRASGYTFTNYGMNWVKQAPGKGLKWMGWINTNTGEPTYTEEFKGRFAFSLETSATTAYLQINDLKNEDTATYFCARDEGWFVYWGQGTLITVSA
VL: ETTVTQSPASLSVATGEKVTIRCITSTDIDDDMNWYQQKPGEPPKLLISEGNTLRPGVPSRFSSSGYGTDFVFTIENTLSEDVADYYCLQTDSVPLTFGAGTKLELK
notes: Hybridoma-derived mouse IgG1, kappa; also called KM5321 antibody
With B1, the “IC50 (read off the curve)” value in assay [1] was approximately 30 ng/mL. In addition, the “antibody:Gas6 molar concentration ratio at complete inhibition” value in assay [2] was 0.5 antibody:Gas6 molar ratio. The “antibody concentration at which binding activity was detected” value in assay [3] stood at 0.0003 µg/mL.

B2: anti-human Gas6 mouse monoclonal antibody KM5320 (KM5320-mKG1 antibody) (antibody, V domains shown)
VH: QIQLVQSGPELKKPGETVKISCKASGYTFTNYGMNWVKQAPGKGLKWMGWINTETGEPTYSDDFKGRFAFSLETSATTAYLQINNLRNEDMATYFCAREDGYYGTLDYWGQGTSVTVSS
VL: SIVMTQTPKFLLVSAGDRVTITCKASQSVSNDVAWYQQKPGQSPKVLIYYASNRYTGVPDRFTGSGYGTDFTFTISTVQAEDLAVYFCQQDYSSPWTFGGGTKLEIK
notes: Hybridoma-derived mouse IgG1, kappa; also called KM5320 antibody
With B2, the “IC50 (read off the curve)” value in assay [1] was approximately 50 ng/mL. Besides, in assay [2], the “antibody:Gas6 molar concentration ratio at complete inhibition” value was 2 antibody:Gas6 molar ratio. Moreover, the “antibody concentration at which binding activity was detected” value in assay [3] amounted to 0.0003 µg/mL.
